Measured values taken from the RNAGym collection of RNA variant scans (doi:10.1021/acssynbio.7b00057).

B1: Pistol ribozyme (parent)
chain: GGGUCGUUGUUCCAUAAUCGCGUGGAUAUGGCACGCAAGUUUCUACCGGGCACCGUAAAUGUCCGACUGGAGCCGUUCGGGCGGCUAUAAACAGACCUCAGGCCCGAAGCGUGGCGGCACCUGCCGCCGGUGGUAAAAAAGAUCGGAAGAGCACACGUCU

Variants of: B1
Test: aptazyme ON/OFF ratio, guanine; higher = stronger switching; co-transcriptional cleavage with and without guanine

Row | Variant | aptazyme ON/OFF ratio
1 | U8C G9C U10A U11C C12U C13U | 1.19
2 | U8C G9C U10A U11C C12U C13A | 1.19
3 | U8C G9C U10A U11C C12U C13G | 1.17
4 | U8C G9C U10C U11C C12U C13G | 1
5 | U8C G9C U10C U11C C12U C13U | 1.01
6 | U8C G9C U10C U11C C12U C13A | 1.05
7 | U8C G9U U10A C12U C13G | 1.2
8 | U8C G9U U10A C12U C13A | 1.18
9 | U8C G9U U10A C12U C13U | 1.09
10 | U8C G9C U10G U11A C12G C13A | 1.08
11 | U8C G9C U10G U11A C12G C13G | 1.13
12 | U8C G9C U10G U11A C12G C13U | 1.11
13 | U8C G9C U11C C12A C13A | 1.03
14 | U8C G9C U11C C12A C13G | 1.07
15 | U8C G9C U11C C12A C13U | 1.06
16 | U8C G9C U10G U11A C12U | 1.02
17 | U8C G9C U10G U11A C12A | 1.21
18 | U8C G9C U10G U11A C12G | 1.26
19 | U8C G9C U10A U11G C12G C13G | 1.11
20 | U8C G9C U10A U11G C12G C13U | 1.09
21 | U8C G9C U10A U11G C12G C13A | 1.19

Row | Variant | aptazyme ON/OFF ratio
22 | U8C G9C U10A U11C C12A C13U | 1.22
23 | U8C G9C U10A U11C C12A C13A | 1.27
24 | U8C G9C U10A U11C C12A C13G | 1.18
25 | U8C G9C U10A C13U | 1.07
26 | U8C G9C U10A C13A | 1.08
27 | U8C G9C U10A C13G | 1.16
28 | U8C G9C U10A C12U | 1.13
29 | U8C G9C U10A C12A | 1.11
30 | U8C G9C U10A C12G | 1.25
31 | U8C G9C U10C U11G C13A | 1.14
32 | U8C G9C U10C U11G C13G | 1.31
33 | U8C G9C U10C U11G C13U | 1.17
34 | U8C G9U U10A U11C C12U C13G | 1.09
35 | U8C G9U U10A U11C C12U C13A | 1.19
36 | U8C G9U U10A U11C C12U C13U | 1.23
37 | U8C G9C U10A U11G C12U C13G | 1.15
38 | U8C G9C U10A U11G C12U C13A | 1.19
39 | U8C G9C U10A U11G C12U C13U | 1.22
40 | U8C G9C U10A U11C C12G C13A | 1.23
41 | U8C G9C U10A U11C C12G C13U | 1.27
42 | U8C G9C U10A U11C C12G C13G | 1.16

Row | Variant | aptazyme ON/OFF ratio
43 | U8C G9C U10A U11A | 1.24
44 | U8C G9C U10A U11G | 1.16
45 | U8C G9C U10A U11C | 1.05
46 | U8C G9C U10C C13U | 1.12
47 | U8C G9C U10C C13A | 1.01
48 | U8C G9C U10C C13G | 1.05
49 | U8C G9C U11C C12G | 1.26
50 | U8C G9C U11C C12A | 1.08
51 | U8C G9C U11C C12U | 1.08
52 | U8C G9C U10C U11C C12U | 0.966
53 | U8C G9C U10C U11C C12A | 1.02
54 | U8C G9C U10C U11C C12G | 1.08
55 | U8C G9C U10C U11C C12A C13U | 1.02
56 | U8C G9C U10C U11C C12A C13G | 1.04
57 | U8C G9C U10C U11C C12A C13A | 1.02
58 | U8C G9C U10G U11A C13G | 1.19
59 | U8C G9C U10G U11A C13A | 1.13
60 | U8C G9C U10G U11A C13U | 1.06
61 | U8C G9C U10C U11A C12G | 1.01
62 | U8C G9C U10C U11A C12U | 1.02
63 | U8C G9C U10C U11A C12A | 1.04

Row | Variant | aptazyme ON/OFF ratio
64 | U8C G9U C12U C13U | 0.959
65 | U8C G9U C12U C13A | 1.25
66 | U8C G9U C12U C13G | 1.04
67 | U8C G9C U11G C12A C13A | 1.09
68 | U8C G9C U11G C12A C13G | 1.14
69 | U8C G9C U11G C12A C13U | 1.1
70 | U8C G9C U10C C12U C13G | 1.07
71 | U8C G9C U10C C12U C13A | 1.02
72 | U8C G9C U10C C12U C13U | 1.06
73 | U8C G9C U11C C12U C13U | 1.07
74 | U8C G9C U11C C12U C13G | 1.02
75 | U8C G9C U11C C12U C13A | 1.05
76 | U8C G9C U11C C12G C13G | 1.26
77 | U8C G9C U11C C12G C13U | 1.15
78 | U8C G9C U11C C12G C13A | 1.2
79 | U8C G9U U10A U11A C13A | 1.15
80 | U8C G9U U10A U11A C13G | 1.07
81 | U8C G9U U10A U11A C13U | 1.22
82 | U8C G9C U10C U11G | 0.956
83 | U8C G9C U10C U11C | 0.964
